From US20160108097A1

Assays:
Experiment in all cases: cell-based or functional assay
[1] = target: HIV-1 subtype B envelope PVO.4 (HIV-1 subtype B)
[2] = target: GRFT-resistant envelope Du179 GRFT c17 (R)
[3] = target: HIV-1 subtype B envelope JR-FL (HIV-1 subtype B)
[4] = target: HIV-1 subtype A envelope Q23.17 (HIV-1 subtype A)
[5] = target: GRFT-resistant envelope Du156R18 (R)
[6] = target: Env of HIV-1RF virus (HIV-1 RF)
[7] = target: HIV-1 subtype C envelope Du179.14 (HIV-1 subtype C)
[8] = target: HIV-1 subtype C envelope COT6.15 (HIV-1 subtype C)
[9] = target: HIV-1 subtype A envelope Q168.a2 (HIV-1 subtype A)
[10] = target: HIV-1 subtype B envelope CAAN5342.A2 (HIV-1 subtype B)
[11] = target: HIV-1 subtype C envelope Du156.12 (HIV-1 subtype C)
[12] = target: HIV-1 subtype B envelope QH0692.42 (HIV-1 subtype B)
[13] = target: HIV-1 subtype C envelope CAP206.8 (HIV-1 subtype C)
[14] = target: HIV-1 subtype C envelope DU151.2 (HIV-1 subtype C)

griffithsin (GRFT), native domain-swapped dimer, sequence (P84801 whole entry X31A, the tested form may be a part): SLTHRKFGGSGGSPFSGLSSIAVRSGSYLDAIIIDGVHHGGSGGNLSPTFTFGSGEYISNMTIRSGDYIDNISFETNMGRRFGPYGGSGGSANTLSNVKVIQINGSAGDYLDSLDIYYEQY

Substance: griffithsin (GRFT), native domain-swapped dimer (from UniProt P84801 1-121)
- IC50 (pseudovirus neutralization, JC53bl-13 cells) [1]: 0.037 nM
- fold reduction in activity between the WT (Du179.14) and R viruses [2]: > 82 fold
- IC50 (pseudovirus neutralization, JC53bl-13 cells) [3]: 0.922 nM
- IC50 (pseudovirus neutralization, JC53bl-13 cells) [4]: 1.19 nM
- IC50 (pseudovirus neutralization, JC53bl-13 cells) [5]: 9.14 nM
- fold reduction in activity between the WT (Du156.12) and R viruses [5]: 282 fold
- Anti-HIV EC50 (XTT cytopathicity assay, HIV-1RF, CEM-SS cells) [6]: 0.0138 nM
- IC50 (pseudovirus neutralization, JC53bl-13 cells) [7]: 0.606 nM
- IC50 (pseudovirus neutralization, JC53bl-13 cells) [8]: 0.734 nM
- IC50 (pseudovirus neutralization, JC53bl-13 cells) [9]: 3.8 nM
- IC50 (pseudovirus neutralization, JC53bl-13 cells) [10]: 7.34 nM
- IC50 (pseudovirus neutralization, JC53bl-13 cells) [11]: 0.0324 nM
- IC50 (pseudovirus neutralization, JC53bl-13 cells) [12]: 0.0473 nM
- IC50 (pseudovirus neutralization, JC53bl-13 cells) [13]: 2.14 nM
- IC50 (pseudovirus neutralization, JC53bl-13 cells) [14]: 1.49 nM
